The chains are these.
B1: Neutrophil cytosol factor 2 (Homo sapiens), P19878 (parent)
chain: MSLVEAISLWNEGVLAADKKDWKGALDAFSAVQDPHSRICFNIGCMYTILKNMTEAEKAFTRSINRDKHLAVAYFQRGMLYYQTEKYDLAIKDLKEALIQLRGNQLIDYKILGLQFKLFACEVLYNIAFMYAKKEEWKKAEEQLALATSMKSEPRHSKIDKAMECVWKQKLYEPVVIPVGKLFRPNERQVAQLAKKDYLGKATVVASVVDQDSFSGFAPLQPQAAEPPPRPKTPEIFRALEGEAHRVLFGFVPETKEELQVMPGNIVFVLKKGNDNWATVMFNGQKGLVPCNYLEPVELRIHPQQQPQEESSPQSDIPAPPSSKAPGRPQLSPGQKQKEEPKEVKLSVPMPYTLKVHYKYTVVMKTQPGLPYSQVRDMVSKKLELRLEHTKLSYRPRDSNELVPLSEDSMKDAWGQVKNYCLTLWCENTVGDQGFPDEPKESEKADANNQTTEPQLKKGSQVEALFSYEATQPEDLEFQEGDIILVLSKVNEEWLEGECKGKVGIFPKVFVEDCATTDLESTRREV

Variants of B1 are the subject of this experiment. As to conditions: with rac2_human RAC2, P15153.
As for MSLVEAISLWNEGVLAADKKDWKGALDAFSAVQDPHSQICFNIGCMYTILKNMTEAEKAFTRSINRDKHLAVAYFQRGMLYYQTEKYDLAIKDLKEALIQLRGNQLIDYKILGLQFKLFACEVLYNIAFMYAKKEEWKKAEEQLALATSMKSEPRHSKIDKAMECVWKQKLYEPVVIPVGKLFRPNERQVAQLAKKDYLGKATVVASVVDQDSFSGFAPLQPQAAEPPPRPKTPEIFRALEGEAHRVLFGFVPETKEELQVMPGNIVFVLKKGNDNWATVMFNGQKGLVPCNYLEPVELRIHPQQQPQEESSPQSDIPAPPSSKAPGRPQLSPGQKQKEEPKEVKLSVPMPYTLKVHYKYTVVMKTQPGLPYSQVRDMVSKKLELRLEHTKLSYRPRDSNELVPLSEDSMKDAWGQVKNYCLTLWCENTVGDQGFPDEPKESEKADANNQTTEPQLKKGSQVEALFSYEATQPEDLEFQEGDIILVLSKVNEEWLEGECKGKVGIFPKVFVEDCATTDLESTRREV [R38Q], the “effect of a mutation on the interaction” value is given as “decreasing interaction strength”.
